T1: rat PAI-1 (rat, UniProt P20961 24-402)
T1 sequence: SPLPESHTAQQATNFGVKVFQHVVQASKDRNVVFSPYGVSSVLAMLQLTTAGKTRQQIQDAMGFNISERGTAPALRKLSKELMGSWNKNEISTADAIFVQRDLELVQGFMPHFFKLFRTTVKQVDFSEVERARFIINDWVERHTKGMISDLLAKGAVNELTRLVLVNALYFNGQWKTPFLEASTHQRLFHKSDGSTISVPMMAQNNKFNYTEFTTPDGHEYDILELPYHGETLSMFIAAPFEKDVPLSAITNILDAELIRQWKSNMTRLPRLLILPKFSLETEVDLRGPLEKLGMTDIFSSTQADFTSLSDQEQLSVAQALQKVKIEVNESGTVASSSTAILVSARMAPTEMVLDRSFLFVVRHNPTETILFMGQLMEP

T2: mouse PAI-1 (mouse, UniProt P22777 24-401)
T2 sequence: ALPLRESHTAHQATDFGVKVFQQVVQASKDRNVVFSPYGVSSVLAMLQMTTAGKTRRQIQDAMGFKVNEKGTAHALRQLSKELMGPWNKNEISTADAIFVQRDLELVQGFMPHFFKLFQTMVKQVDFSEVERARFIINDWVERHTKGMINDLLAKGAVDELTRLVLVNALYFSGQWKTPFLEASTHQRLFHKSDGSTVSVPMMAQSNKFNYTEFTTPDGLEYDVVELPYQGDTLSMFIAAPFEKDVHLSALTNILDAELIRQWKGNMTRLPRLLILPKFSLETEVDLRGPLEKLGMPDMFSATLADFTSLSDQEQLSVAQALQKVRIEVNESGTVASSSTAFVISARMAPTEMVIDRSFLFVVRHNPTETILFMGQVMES


Tests used:
Experiment in all cases: cell-based or functional assay
[1] = biological target: T1, rat PAI-1
[2] = biological target: T2, mouse PAI-1
[3] = biological target: cynomolgus PAI-1 (cynomolgus, UniProt P05121 24-402 (human entry), limits assumed)
[4] = biological target: active human PAI-1, recombinant, wild-type, non-glycosylated (E. coli) (human, UniProt P05121 24-402)

| Binder | Chromogenic IC50 ratio rat/human [1] | Chromogenic IC50 ratio mouse/human [2] | Chromogenic IC50 ratio cyno/human [3] | Chromogenic (IC50 in nM) human [4] | Chromogenic (IC50 in nM) rat [1] | Chromogenic (IC50 in nM) mouse [2] | Chromogenic (IC50 in nM) cyno [3] |
| --- | --- | --- | --- | --- | --- | --- | --- |
| Antibody 02 IgG1, not germlined (antibody, V domains shown) VH: QVQLVQSGAEVKKPGSSVKVSCKASGGTFSSYAISWVRQAPGQGLEWMGGIIPTFGTANYAQKFQGRVTITADESTSTAYMELSSLRSEDTAVYYCAREKRQWLEGHFDYWGRGTLVTVSS VL: DIQMTQSPSTLSASVGDRVTITCRASEGIYHSLAWYQQKPGKAPKLLIYKASSLASGVPSRFSGSGSGTEFTLTISSLQPDDFATYYCQQYSDYPLTFGGGTKVEIK | 317 fold | 104 fold | – | – | – | – | – |
| Antibody 01 IgG1, not germlined (antibody, V domains shown) VH: QVQLVQSGAEVKKPGSSVKVSCKASGGTFSSYAISWVRQAPGQGLEWMGGIIPIFGTANYAQKFQGRVTITADESTSTAYMELSSLRSEDTAVYYCAREKRQWLEGHFDYWGRGTLVTVSS VL: DIQMTQSPSTLSASVGDRVTITCRASEGIYRSLAWYQQKPGKAPKLLIYKASSLASGVPSRFSGSGSGTEFTLTISSLQPDDFATYYCQQYSNYPLTFGGGTKVEIK | 66.2 fold | 20 fold | 0.4 fold | – | – | – | – |
| Antibody 11 scFv (scFv) QVQLQQSGAEVKKPGSSVKVSCKASGGTFSSYAISWMRQAPGQGLEWMGGIIPIFGTANYAQKFQGRVTITADESTSTAYMELSGLRSEDTAVYYCAREKRQWLEGHFDYWGRGTPVTVSSDIQMIQSPSFLSASTGDRVTITCQASEGIYHELAWYQQKPGKAPKLLIYRASSLASGAPSRFSGSGSGTDFTLTISSLQPDDFATYYCQQYSNYPLTFGGGTKLEIK | 0.6 fold | 0.3 fold | 0.4 fold | 102 nM | 59.5 nM | 33.6 nM | 43.8 nM |
| Antibody 18 scFv (scFv) QVQLQQSGAEVKKPGSSVKVSCKASGGTFSSYAISWVRQAPGQGLEWMGGIIPTFGTANYAQKLQGRVTITADESTSTAYMELSGLRSEDTAVYYCAREKRQWLEGHFDYWGRGTPVTVSSDIQMTQSPSFLSASIGDRVTITCRASEGIYHALAWYQQKPGKAPKLLIYRASSLASGAPSRFSGSGSGTDFTLTISSLQPDDFATYYCQQYSNYPLTFGGGTKLEIK | – | 255 fold | 0.4 fold | – | – | 319 nM | 0.5 nM |
| Antibody 22 scFv (scFv) QVQLQQSGAEVKKPGSSVKVSCKASGGTFSGYAISWVRQAPGQGLEWMGGIIPTFGTANYSQKFQGRVTITADESTSTAYMELSGLRSEDTAVYYCAREKRQWLEGHFDYWGRGTPVTVSSDIQMTQSLSFLSASIGDRVTITCRASEGIYHALAWYQQKPGKAPKLLIYRASSLASGAPSRFSGSGSGTDFTLTISSLQPDDFATYYCQQYSNYPLTFGGGTKLEIK | 81.2 fold | 82.6 fold | 0.3 fold | 5 nM | 406 nM | 413 nM | 1.5 nM |
| Antibody 21 scFv (scFv) PVQLQQSGAEVKKPGSSVKVSCKASGGTFSSYAISWVRQAPGQGLEWMGGIIPTFGTANYAQKFQGRVTITADESTSTAYMELSGLRSEDTAVYYCAREKRQWLEGHFDYWGRGTPVTVSSDIQMAQSPSFLSASIGDRVTITCRASEGIYHNLAWYQQKPGKAPKLLIYRASSLASGAPSRFSGSGSGTDFTLTISSLQPDDFATYYCQQYSNYPLTFGGGTKLEIK | 12 fold | 7.9 fold | 0.4 fold | 4.1 nM | 49.2 nM | 32.2 nM | 1.6 nM |
| Antibody 13 scFv (scFv) QVQLQQSGAEVKKPGSSVKVSCKASGGTFSSYAISWVRQAPGQGLEWMGGIIPTFGTANYAQKFQGRVTITADESTSTAYMELSDLRSEDTAVYYCAREKRQWLEGHFDYWGRGTPVTVSSDIQMTQSPSFLSASIGDRVTITCRASEGIYHSLAWYQQKPGKAPKLLIYRASSLASGAPSRFSGSGSGTDFTLTISSLQPDDFATYYCQQYSNYPLTFGGGTKLEIK | 48.6 fold | 85.8 fold | 0.4 fold | 2.9 nM | 140 nM | 247 nM | 1.2 nM |
| Antibody 19 scFv (scFv) QVQLQQSGAEVKKPGSSVKVSCKASGGTFSSYAISWVRQAPGQGLEWMGGIIPIFDTANYAQKFQGRVTITADESTSTAYMELSGLRSEDTAVYYCARERRQWLEGHFDYWGRGTPVTVSSDIRMTQSPSFLSASIGDRVTITCRASEGIYHELAWYQQKPGKAPKLLIYRASSLASGAPSRFSGSGSGTEFTLTISSLQPDDFATYYCQQYSNYPLTFGGGTKLEIK | 0.3 fold | 0.2 fold | 0.4 fold | 26 nM | 7.9 nM | 6.4 nM | 10.8 nM |
| Antibody 12 scFv (scFv) QVQLQQSGAEVKKPGSSVKVSCKASGGTFSSYAISWVRQAPGQGLEWMGGIIPTFPTANYAQKFQGRVTITADESTSTAYMELSGLRSEDTAVYYCAREKRQWLEGHFDYWGRGTPVTVSSDIQMTQSPSFLSASIGDRVTITCRASEGIYHNLAWYQQKPGKAPKLLIYRASSLASGAPSRFSGSGSGTDFTLTISSLQPDDFATYYCQQYSNYPLTFGGGTKLEIK | 34.4 fold | 12.2 fold | 0.3 fold | 2.3 nM | 78.2 nM | 27.8 nM | 0.6 nM |
| Antibody 17 scFv (scFv) QVQLQQSGAEVKKPGSSVKVSCKASGGTFSSYAISWVRQAPGQGLEWMGGIIPTFGTANYAQKFQGRVTITADESTSTAYMELSGLRSEDTAVYYCAREKRQWLEGHFDYWGRGTPVTVSSDIQMTQSPSFLSASIGDRVTITCRASEGIYHELAWYQQKPGKAPKLLIYRASSLASGAPSRFSGSGSGTDFTLTISSLQPDDFATYYCQQYSNYPLTFGGGTKLEIK | 0.3 fold | 0.4 fold | 0.6 fold | 71.5 nM | 24.9 nM | 26.2 nM | 41.5 nM |

Source: patent US20130266566A1 (AbbVie / Abbott, published 2013)
